The text below walks through data of patent US20190375839A1 (JIANGSU HENGRUI MEDICINE, published 2019).

The term EC50 denotes the concentration that produces a half-maximal response. Lower therefore signals a more potent agent. As usually defined, the Kd is the equilibrium constant for the complex coming apart. A word on the EC50 (read off the curve): it is the concentration needed to bring the measured effect to its halfway point. A high value points to lower potency in that assay.

Changes are numbered by the printed parent chain. Names may count otherwise.

Experiment [1] deals with T1, human TIM-3 full length, overexpressed on CHO-S cells (human, UniProt Q8TDQ0 22-301).
T1 construct: cells fixed with 4% PFA on plates; also called HAVCR2; Tim-3-overexpressing CHO-S cells
Kind of experiment: cell-based ELISA on fixed CHO-S cells overexpressing human TIM-3.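 Also: antibody binding at serial dilutions to PFA-fixed cells for 1 h at 37 °C, read as TMB colour signal after acid stop.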
Procedure: (§1) The binding activity of anti-TIM-3 antibody to CHO-S cells overexpressing human TIM-3 is detected via a binding assay. […] TIM-3-overexpressing cells were immobilized on a 96-well plate. After the addition of the antibody, signal strength was used to determine the binding activity of the antibody to Tim-3-overexpressing CHO-S cells.
(§2) The cells were inoculated on a 96-well plate with 4E5/ml density, 100 μg/well, and cultured overnight. Supernatant was discarded and the plate was washed three times with PBS. 100 μl/well of 4% PFA was added into each well, and the plate was fixed at room temperature for 30 minutes. The plate was washed three times with PBS. The liquid was discarded, and 200 μl of blocking solution (5% skim milk (Guangming skim milk powder) diluted with PBS) was added to each well. The plate was incubated at 37° C. for 2.5 h. Then the blocking solution was discarded, and the plate was washed 5 times with PBST buffer (pH 7.4 PBS containing 0.05% Tween-20). 50 μl/well of various concentrations of antibodies to be tested (antibody via hybridoma purification or humanized antibody), diluted with sample buffer, were added into each well, and incubated at 37° C. for 1 h. […] The plate was washed 6 times with PBST, and 100 μl/well TMB chromogenic substrates (KPL, Cat, No., 52-00-03) was added to each well. The plate was incubated at room temperature for 5-15 min. Reaction was stopped by the addition of 50 μl of 1 M H₂SO₄ to each well.

For experiment [2], the target named is T2, Extracellular domain of TIM-3 with Flag and His tag (human).
T2 construct: also called TIM-3-Flag-His
Kind of experiment: Biacore SPR; antibody captured by anti-human capture antibody on CM5, TIM-3-Flag-His in mobile phase. On the technique in general: In SPR one partner is held on a chip, and binding of the other changes the refractive index at the surface.
Source text: The reaction signal was detected in real-time using Biacore instrument to obtain the association and dissociation curves. […] In the experiment, after each cycle of dissociation was finished, the biosensor chip was washed with the regenerative solution in the human capture antibody Kit.

For experiment [3], the target named is T1, human TIM-3 full length, overexpressed …. Briefly: cell-based ELISA on fixed CHO-S cells overexpressing human TIM-3, HRP-labeled secondary antibody, OD450. A general note: ELISA stands for enzyme-linked immunosorbent assay.
For experiment [4] the target is unchanged. Briefly: cell-based ELISA on CHO-S cells overexpressing human TIM-3.
Procedure: as §1, §2
Experiment [5] has as its target T2, Extracellular domain of TIM-3 with Flag …. Briefly: Biacore SPR; antibody as stationary phase, 'TIM-3-His' as mobile phase.

B1: Ch1799 (antibody, human IgG4 S228P, kappa, V domains shown)
VH: EVKLVESEGGLVQPGSSMKLSCTASGFTFSDYYMAWVRQVPEKGLEWVANINYDGSSTYYLDSLKSRFIISRDNAKNILYLQMNSLKSDDTATYYCARDVGYYGGNYGFAYWGQGTLVTVSA
VL: DIQMTQSPASLSASVGETVTITCRASDNIYSYLAWYQQKQGKSPQLLVYNAKTLAEGVPSRFSGSGSGTQFSLKINSLQPEDFGSYYCQQHYGSPLTFGAGTKLELKR
With B1, in experiment [1], the EC50 turned out to be 0.08 nM. Further, the dissociation constant Kd in experiment [2] was 1.76 nM.

B2: h1799-005 (antibody, human IgG4 S228P, kappa)
heavy: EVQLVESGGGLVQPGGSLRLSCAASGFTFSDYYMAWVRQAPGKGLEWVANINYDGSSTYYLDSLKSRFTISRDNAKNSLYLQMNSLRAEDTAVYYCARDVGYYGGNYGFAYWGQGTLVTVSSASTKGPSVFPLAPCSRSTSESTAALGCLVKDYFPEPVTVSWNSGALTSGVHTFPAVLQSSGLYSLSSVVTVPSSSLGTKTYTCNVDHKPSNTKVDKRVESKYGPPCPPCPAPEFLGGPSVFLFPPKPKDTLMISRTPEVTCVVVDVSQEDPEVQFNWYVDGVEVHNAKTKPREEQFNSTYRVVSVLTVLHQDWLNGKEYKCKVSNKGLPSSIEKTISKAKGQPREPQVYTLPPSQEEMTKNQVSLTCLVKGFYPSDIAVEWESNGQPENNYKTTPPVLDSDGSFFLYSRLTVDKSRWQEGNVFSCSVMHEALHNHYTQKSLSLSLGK
light: DIQMTQSPSSLSASVGDRVTITCRASDNIYSYLAWYQQKPGKAPKLLIYNAKTLAEGVPSRFSGSGSGTDFTLTISSLQPEDFATYYCQQHYGSPLTFGQGTKLEIKRTVAAPSVFIFPPSDEQLKSGTASVVCLLNNFYPREAKVQWKVDNALQSGNSQESVTEQDSKDSTYSLSSTLTLSKADYEKHKVYACEVTHQGLSSPVTKSFNRGEC
notes: Humanized IgG4 (S228P)/kappa
B2 gave a concentration for a half-maximal effect (EC50) in experiment [1] of 0.063 nM. The same molecule displayed a dissociation constant Kd in experiment [2] of 1.78 nM.

B3: h1799-006 (antibody, human IgG4 S228P, kappa)
heavy: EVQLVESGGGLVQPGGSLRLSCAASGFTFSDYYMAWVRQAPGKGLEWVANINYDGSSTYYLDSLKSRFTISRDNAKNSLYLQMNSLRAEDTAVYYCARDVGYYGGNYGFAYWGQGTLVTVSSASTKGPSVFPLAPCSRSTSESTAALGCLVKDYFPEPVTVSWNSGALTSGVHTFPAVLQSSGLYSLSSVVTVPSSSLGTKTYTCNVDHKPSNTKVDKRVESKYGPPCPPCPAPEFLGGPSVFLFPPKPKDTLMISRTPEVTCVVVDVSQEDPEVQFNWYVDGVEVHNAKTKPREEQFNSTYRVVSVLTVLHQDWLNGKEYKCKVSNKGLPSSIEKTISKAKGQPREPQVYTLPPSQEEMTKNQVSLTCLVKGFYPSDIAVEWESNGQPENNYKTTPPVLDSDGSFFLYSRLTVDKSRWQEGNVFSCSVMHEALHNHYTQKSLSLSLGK
light: B2 light with I48V
notes: Humanized IgG4 (S228P)/kappa
With B3, in experiment [1], the EC50 worked out at 0.095 nM. The molecule further registered a Kd in experiment [2] of 1.89 nM.

B4: h1799-010 (antibody, human IgG4 S228P, kappa)
heavy: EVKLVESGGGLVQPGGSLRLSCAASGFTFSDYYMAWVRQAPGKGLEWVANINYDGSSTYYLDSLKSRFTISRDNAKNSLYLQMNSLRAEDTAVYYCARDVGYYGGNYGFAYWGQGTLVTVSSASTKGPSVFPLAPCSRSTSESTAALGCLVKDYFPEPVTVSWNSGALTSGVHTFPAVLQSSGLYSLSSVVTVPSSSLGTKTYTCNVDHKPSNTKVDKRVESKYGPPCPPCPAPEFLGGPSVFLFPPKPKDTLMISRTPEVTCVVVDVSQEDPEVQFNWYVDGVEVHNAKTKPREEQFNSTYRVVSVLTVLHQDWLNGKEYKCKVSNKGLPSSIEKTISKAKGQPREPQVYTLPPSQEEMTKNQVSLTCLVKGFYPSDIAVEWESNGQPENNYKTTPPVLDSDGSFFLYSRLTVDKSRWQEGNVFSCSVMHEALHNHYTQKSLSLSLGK
light: B2 light
notes: Humanized IgG4 (S228P)/kappa
B4: in experiment [1], the concentration for a half-maximal effect (EC50) was 0.077 nM. Moreover, in experiment [2], the dissociation constant Kd was 2.48 nM.

B5: ABTim-3 (antibody, V domains shown)
VH: QVQLQQPGAELVKPGASVKMSCKASGYTFTSYNMHWIKQTPGQGLEWIGDIYPGNGDTSYNQKFKGKATLTADKSSSTVYMQLSSLTSEDSAVYYCARVGGAFPMDYWGQGTSVTVSS
VL: DIVLTQSPASLAVSLGQRATISCRASESVEYYGTSLMQWYQQKPGQPPKLLIYAASNVESGVPARFSGSGSGTDFSLNIHPVEEDDIAIYFCQQSRKDPSTFGGGTKLEIK
B5: the half-maximal effective concentration (EC50 (read off the curve)) in experiment [3] was roughly 0.2 nM.

B6: h1701-009 (antibody, human IgG4 S228P, kappa, V domains shown)
VH: QVQLVQSGAEVKKPGASVKVSCKASGYTFTDYYMNWVRQAPGQGLEWMGDIIPNNGGSKYNQKFKDRVTMTTDTSTSTAYMELRSLRSDDTAVYYCATWGYGSSYRWFDYWGQGTLVTVSS
VL: DIQMTQSPSSLSASVGDRVTITCLASQPIGIWLAWYQQKPGKAPKLLIYAATSLADGVPSRFSGSGSGTDFTFTISSLQPEDIATYYCQQLYSSPWTFGGGTKVEIKR
notes: Humanized IgG4 (S228P)/kappa
With B6, the EC50 was determined as 0.187 nM in experiment [1] and 0.503 nM in experiment [4]. The equilibrium dissociation constant (Kd) in experiment [2] was 1.34 nM; in experiment [5], 0.599 nM.
